Where a chain is given by its changes, count along the chain named. Names and notes keep the numbering of the source. “Also recorded” adds a separate entry of the source.
B1: Arl8b^T34N: putative GDP-bound, dominant negative Arl8b mutant (Thr-to-Asn at 34; SEQ ID NO: 12), expressed from plasmid or adenovirus Adv-MG1023; tagged forms used (protein)
chain: MLALISRLLDWFRSLFWKEEMELTLVGLQYSGKNTFVNVIASGQFSEDMIPTVGFNMRKVTKGNVTIKIWDIGGQPRFRSMWERYCRGVNAIVYMIDAADREKIEASRNELHNLLDKPQLQGIPVLVLGNKRDLPNALDEKQLIEKMNLSAIQDREICCYSISCKEKDNIDITLQWLIQHSKSRRS
modifications: GFP/RFP tags in some forms; T34N substitution, GDP-binding
notes: tagged forms used
B2: Arl8b^Q75L: putative GTP-bound, dominant active Arl8b mutant (Gln-to-Leu at 75; SEQ ID NO: 13), expressed from plasmid or adenovirus Adv-MG1022; tagged forms used (protein)
chain: B1 chain with N34T, Q75L
modifications: GFP/RFP tags in some forms; Q75L substitution, GTP-binding
notes: tagged forms used

What was measured:
C57BL/6 mice = experiment: Diet-induced fatty liver mouse model (high-fat-high-sucrose diet), Oil Red O; assay type: in vivo; settings: adenovirus injected 1 day before HFHS diet for up to 4 days
Method: The respective Arl8b^T34N (DN), Arl8b^Q75L (DA), and Arl8b^WT constructs, along with empty virus (EV; control treatment) were injected into mice 1 day prior to feeding with a high fat diet for up to 4 days. The livers were stained with Oil Red O to determine the lipid contents, under the expression of various forms of Arl8b.
In these experiments, C57BL/6 mice were injected with adenovirus encoding different variants, namely Arl8b^T34N, Arl8b^Q75L, and Arl8b^WT. In these mice, expression of Arl8b proteins encoded by the adenoviral vectors lasts at least a few weeks. Thus, 1-day after viral injection, the mice were placed on a high-fat-high-sucrose (HFHS) diet for up to 4 days.

[1] = test system: McA-RH7777 cells (A18-C3); experiment: Live imaging of lysosomal motility and lysosome-CLD interaction (kiss-and-run); assay type: cell-based, rat; settings: for lysosomal adherence to / dissociation from CLD (the off phase): Arl8b-expressing cells, EPA
[2] = test system: primary neurons from parkinsonian mice; experiment: Lysosome and cell morphology in Parkinson's disease primary neurons; assay type: cell-based, mouse
hepatic cells = experiment: Hepatic glucose uptake (fluorescent 2-NBDG assay); assay type: cell-based; settings: transfected cells treated with EPA
[3] = test system: endogenous HOPS subunits (Vps41, Vps11, Vps39); experiment: Proximity ligation assay (in situ co-IP) of Arl8b with HOPS subunits; assay type: cell-based, rat; settings: mCherry-tagged Arl8b mutants; baseline and 1 h post-EPA
Method: (§1) In certain non-limiting examples described herein, McA-RH7777 cells stably expressing human apoB-100 and human apoC-III (designated A18-C3) were used for the studies. […] In addition, these studies, particularly those concerning EPA- or DHA-triggered lysosomal motility and CLD degradation, were also performed using primary rat hepatocytes. Transfection of plasmids encoding proteins of interest, or transfection of siRNA specific for silencing target gene expression, was achieved using the FuGENE HP Extreme reagent (Roche). Representative gene silencing siRNA sequences, which are not meant to be limiting, are described in Table 1, and plasmids encoding proteins of interest are described in Table 2. The effectiveness of siRNA silencing was verified by Western-blotting of cellular content of the target proteins, and by intracellular localization assay using siRNA-Tracker (Mirus Bioscience). Twenty-four h after plasmid transfection, or 48 h after siRNA transfection, the cells were cultured in lipid-rich media containing fetal bovine serum (20%) and OA (0.4 mM). The lipid-laden cells were switched to fresh media supplemented with OA or EPA (0.4 mM). In live imaging experiments, LipidTOX Red (Life Technologies) and LysoTracker (Life Technologies) were added to media prior to EPA treatment, to visualize lipid droplets and lysosomes, respectively. For visualizing peroxisomes, Peroxisome-GFP (Invitrogen) was introduced to the cells 24 h prior to experiments. Quantification of cell lipid contents was achieved either by direct mass measurement (HPTLC) and counting the number of lipid droplets using Image J Lipid Droplet Counter Plug-In, or indirectly by Western blot analysis of cellular content of ADRP. Secretion of apoB and TG-rich lipoprotein was determined by Western blot analysis and metabolic labeling. Mitochondrial β-oxidation was measured using MitoSOX Red (Life Technologies) in situ. Autophagic flux was determined by using Cyto-ID assay (Enzo Life Science) and by monitoring GFP-LC3 clustering in situ. Interaction of Arl8b and subunits of the HOPS complex was determined in situ by the proximity ligation assay (Olink Biosience). Cytoplasmic pH was measured using the cytosolic pHrodo indicator reagent (Invitrogen). Live imaging of fluorescent-tagged proteins was performed 1 h post-EPA treatment. Cells were also collected at the time of EPA treatment for transmission EM and tomography, as well as immuno-EM. For movies, cells were imaged at 60 sec intervals every 5 min, for a total of 30 min.
Cells were transfected with plasmids encoding RFP-tagged Arl8b^WT, Arl8b^Q75L, or Arl8b^T34N. The cells were treated with OA for 16 h (baseline condition as control). […] Quantification of signals was done in a total of 50 cells under each condition from 3 independent experiments.

[4] = test system: McA-RH7777 cells stably expressing human apoB-100 and human apoC-III (A18-C3); assay type: cell-based; settings: for effect on EPA-induced lipid degradation (CLD turnover): cells silenced, transfected or pre-treated, then EPA 0.4 mM, 6 h
Method: as §1
The A18-C3 cells were cultured in DMEM (Invitrogen) supplemented with fetal bovine serum (20%), penicillin (50 U/mL), streptomycin (50 μg/mL, Invitrogen) and Geneticin/G418 (500 μg/mL, Gibco) at 37° C. in 5% CO2. Transfection was conducted when cells were 60-70% confluence. Appropriate plasmids were mixed with FuGENE HP extreme reagent (Roche Diagnostic), according to manufacturer's protocol, and incubated for 30 min. Twenty-four h after transfection, cells were switched to lipid-rich media containing OA (0.4 mM) for additional 16 h prior to imaging and biochemical analysis. In silencing experiments, appropriate siRNAs were transfected into cells using the X-treme GENE siRNA regent (Roche Diagnostic). Localization of siRNA in transfected cells in situ was carried out using the Cy5 Label IT-siRNA Tracker (Minis Bioscience #7213) according to manufacturer's protocol. Forty-eight h after transfection, cells were switched to lipid-rich media containing OA (0.4 mM) for additional 16 h prior to imaging and biochemical analysis.
Quantification of lipid droplets was carried out using confocal and differential interface contrast (DIC) microscopy. Lipid droplets were stained with LipidTOX Red (Invitrogen) before adding OA or EPA. All images were visualized using a 63× oil immersion objective lens. Z-series stacks were acquired with 0.2 μm steps. […]

[5] = transfection of PD primary neurons

| Molecule | liver steatosis (Oil Red O) (C57BL/6 mice) | lysosomal adherence to / dissociation from CLD (the off phase) [1] | axonal swelling and degeneration in PD primary neurons [2, 5] | lysosomal phenotype (ring shape structure) in PD primary neurons [2, 5] | glucose uptake (hepatic cells) | binding to endogenous HOPS subunits [3] | lipid content of lipid-laden cells without addition of EPA ([4]; OA-treatment conditions, transfected cells) | effect on the inhibition of microautolipophagy by Vps41 and GTP-bound Arl8b ([4]; cell culture studies) | effect on EPA-induced lipid degradation (CLD turnover) [4] | lysosomal adherence to / dissociation from CLD (the off phase) ([1]; listed as GFP::Arl8b^Q75L) | effect on EPA-triggered lysosomal motility / lysosomal interaction with CLD ([1]; cells silenced, transfected or pre-treated (15 min) before EPA) | lysosomal phenotype of normal primary neurons ([2]; transfection of normal primary neurons) |
| --- | --- | --- | --- | --- | --- | --- | --- | --- | --- | --- | --- | --- |
| B1 | nearly absent lipid accumulation | fastened | restored axonal swelling and degeneration; also recorded: restore axons | cleared the ring shape structure of lysosomes | increased rate of glucose uptake | only shows interaction with Vps39 | lipid content is lowered | can override the inhibitory effect of Vps41 and a GTP-bound form of Arl8b on microautolipophagy | accelerated | – | – | – |
| B2 | developed pronounced steatosis | no disassociation of lysosomes from CLD occurred | – | – | virtually abolished glucose uptake | binds to Vps41 and Vps11; also recorded: does not bind to Vps39 | – | – | completely blocked | prolonged lysosomal adherence to CLD | higher incidence of direct lysosome-lipid droplet interaction | converts normal neuronal lysosomes to PD primary neuron phenotype |
